Reference: paper PMC5851990 (2018)

Experiments:
[1] = target: chicken Ten2^ecto P1680L mutant (residues 596-2802) (chicken, UniProt Q9DER5 596-2802, P1680L); test: SPR
[2] = target: chicken Ten2^ecto wild type (residues 596-2802) (chicken, UniProt Q9DER5 596-2802); test: SPR

Kd [1]: 740 nM
Kd [2]: 790 nM
B1: mouse Lphn2^Lec (Latrophilin 2 lectin domain, residues 30-137) (domain or fragment)
chain: ALPFGLVRRELSCEGYSIDLRCPGSDVIMIESANYGRTDDKICDADPFQMENTDCYLPDAFKIMTQRCNNRTQCIVVTGSDVFPDPCPGTYKYLEVQYECVPYSKMLV
modifications: biotinylated enzymatically in vivo at a C-terminal AviTag
